Substrate: C=C(C)CCO[P@@](=O)(O)OP(=O)(O)O
Assay: Turnover rate of heterotetrameric Mentha GPP synthase (comparison)
Type: biochemical
Conditions: other: assuming two functional active sites

B1: Mentha GPP synthase, heterotetrameric (dimer of heterodimers) (Mentha x piperita) (protein)
chain: MSALVNPVAKWPQTIGVKDVHGGRRRRSRSTLFQSHPLRTEMPFSLYFSSPLKAPATFSVSAVYTKEGSEIRDKDPAPSTSPAFDFDGYMLRKAKSVNKALEAAVQMKEPLKIHESMRYSLLAGGKRVRPMLCIAACELVGGDESTAMPAACAVEMIHTMSLMHDDLPCMDNDDLRRGKPTNHMAFGESVAVLAGDALLSFAFEHVAAATKGAPPERIVRVLGELAVSIGSEGLVAGQVVDVCSEGMAEVGLDHLEFIHHHKTAALLQGSVVLGAILGGGKEEEVAKLRKFANCIGLLFQVVDDILDVTKSSKELGKTAGKDLVADKTTYPKLIGVEKSKEFADRLNREAQEQLLHFHPHRAAPLIALANYIAYRDN
notes: probably E. coli, C-terminal His8 tag, transit peptide deleted
- kcat: 2.4 s⁻¹
